The supplement of paper PMC7125110
± gives the standard error. Fewer inactive variants are shown than the library holds.

B1: glmS ribozyme (parent)
chain: AUAAAAGCGCCAGAACUACAGAAAUGUAGUUGACGAGGAGGAGGUUUAUCGAAUUUUCGGCGGAUGCCUCCAAA

How the values were obtained:
Conditions in all cases: with glucosamine-6-phosphate
glucosamine-6-phosphate [1] = variants of: B1; test: self-cleavage kobs at 40 uM GlcN6P; higher = faster cleavage; RNA array
Summary of the method: (§1)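 Tracking of barcoded ribozyme variants used a hybridised Cy3 probe at 37 °C, after in situ transcription by E. coli RNA polymerase on sequenced MiSeq chips. The flowed solution held 40 μM to 10 mM glucosamine-6-phosphate in HEPES/KCl/Mg(OAc)2 buffer, and imaging ran over ~14 h. kobs was taken from exponential decay fits of normalised per-tile medians, and kcat and KM from weighted Michaelis–Menten fits.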

glucosamine-6-phosphate [2] = variants of: B1; test: self-cleavage kobs at 10000 uM GlcN6P; higher = faster cleavage; RNA array
Summary of the method: as §1

glucosamine-6-phosphate [3] = variants of: B1; test: self-cleavage kobs at 160 uM GlcN6P; higher = faster cleavage; RNA array
Summary of the method: as §1

glucosamine-6-phosphate [4] = variants of: B1; test: self-cleavage kobs at 2500 uM GlcN6P; higher = faster cleavage; RNA array
Summary of the method: as §1

glucosamine-6-phosphate [5] = variants of: B1; test: self-cleavage kobs at 640 uM GlcN6P; higher = faster cleavage; RNA array
Summary of the method: as §1

| Variant | self-cleavage kobs at 40 uM GlcN6P (glucosamine-6-phosphate [1]) [s⁻¹] | self-cleavage kobs at 10000 uM GlcN6P (glucosamine-6-phosphate [2]) [s⁻¹] | self-cleavage kobs at 160 uM GlcN6P (glucosamine-6-phosphate [3]) [s⁻¹] | self-cleavage kobs at 2500 uM GlcN6P (glucosamine-6-phosphate [4]) [s⁻¹] | self-cleavage kobs at 640 uM GlcN6P (glucosamine-6-phosphate [5]) [s⁻¹] |
| --- | --- | --- | --- | --- | --- |
| AUAAAAGCGCGAGAACUACAGAAAUGUAGUCGAGGAGGAGGAGGUAUAUCGAAUUUUCGGCGGAUGCCUCCAAA [C11G U31C C34G U46A] | < 1e-05 | < 1e-05 |  |  |  |
| AUAAAAGCGCGAGAACUACAGAAAUGUAGUUGACGAGGAGGAGGUUUAUCGAAUUUGCGGCGGAUGCCUCCAAA [C11G U57G] | < 1e-05 | < 1e-05 | < 1e-05 | < 1e-05 |  |
| AUAAAAGCGCUAGAACUACAGAAAUGUAGUUGUCGAGGAGGAGGUUUAUCGAAUUUUCGGGGGAUGCCUCCAAA [C11U A33U C61G] | < 1e-05 |  |  |  |  |
| AUAAAAGCGCGAGAACUACAGAAAUGUAGUUGACGAGGAGCAGGUUUAUCGAAUUUUCGGCGGAUGCCUCCAAA [C11G G41C] | < 1e-05 |  | < 1e-05 | < 1e-05 | < 1e-05 |
| AUAAAAGCGCGAGAACUACAGAAAUGUAGUUGACGAGGAGGAUGUUUUUCGAAUUUUCGGGGGGUGCCUCCAAA [C11G G43U A48U C61G A64G] | < 1e-05 | < 1e-05 |  | < 1e-05 | < 1e-05 |
| AUAAAAGCGCGAGAACUACAGAAAUGUAGUUGACGAGGAGGAGGUUUAUCGAAUUUUCGGCAGAUGCCUCCAAA [C11G G62A] | < 1e-05 |  |  |  |  |
| AUAAAAGCGCGAGAACUACAGAAAUGUAGUGGACGAGGAGGAGGUUUAUCGACUUUUCGGCGGAUGCCUCCAAA [C11G U31G A53C] | < 1e-05 |  |  |  |  |
| AUAAAAGCGCUAGAACUACAGAAAUGUAGUUGGCGAUGAGGAGGUUUAUCGAAUUUUCGGCGGAUGCCUCAAAA [C11U A33G G37U C71A] | < 1e-05 | < 1e-05 |  |  |  |
| AUAAAAGCGCUAGAACUACAGAAAUGUAGUUGGCGAGGAGGAGGUUUAUCGAAUUUUCGGCGGAUGCCACCAAA [C11U A33G U69A] | < 1e-05 | < 1e-05 |  |  |  |
| AUAAAAGCGCGAGAACUACAGAAAUGUAGUUGACGAGGAGGAGGUUUAUCGAAUUUUCGGCGGAUUCCUCCAAA [C11G G66U] | < 1e-05 |  |  | < 1e-05 |  |
| AUAAAAGCGCUAGAACUACAGAAAUGUAGUUGACGGGCAGGAGGUUUAUCGAAUUUUCGGCGGAUGCCCCCAAA [C11U A36G G38C U69C] | < 1e-05 |  |  |  |  |
| AUAAAAGCGCGAGAACUACAGAAAUGUAGUUGACGAGGAGGAGGUUUAUCGAAUGUUCGGCGGAUGCCUCCAAA [C11G U55G] | < 1e-05 |  | < 1e-05 |  |  |
| AUAAAAGCGCUAGACCUACAGAAAUGUAGUUGACGAGGAGGAGGUUUAUCGAAUUUUCGGCCGAUGCCUCCAAA [C11U A15C G62C] | < 1e-05 | < 1e-05 |  |  |  |
| AUAAAAGCGCGAGAACUACAGAAAUGUAGUUGACGAGGAGGAGGUUUAUCGAAUUUUCGGCGGAUGCCGCUAAA [C11G U69G C71U] | 4.35e-05 ± 2.1e-05 |  |  |  |  |
| AUAAAAGCGCUAGAACUACAGAAAUGUAGUUGACGAGGAGGAGGUUUAUCGCAUUUUCGGCGGAUGCCUCCAAA [C11U A52C] | < 1e-05 | < 1e-05 |  | < 1e-05 | < 1e-05 |
| AUAAAAGCGCGAGAACUACAGAAAUGUAGUUGACGAGGAGCAGGUUUAUUGAAUUUUCGGCGGAUGCCUCCAAA [C11G G41C C50U] | < 1e-05 |  |  |  |  |
| AUAAAAGCGCGAGAACUACAGAAAUGUAGUUGACGAGGAGGAGGUAUAUCGAAUUUUCGGCGGAUGGCUCCAAA [C11G U46A C67G] | < 1e-05 | < 1e-05 |  |  |  |
| AUAAAAGCGCGAGAACUACAGAAAUGUAGUUGACGAGGAGGAGGUUUAUCGAAUUUUCCGCGGAUGCCUCCAAA [C11G G59C] | 5.21e-05 ± 2.3e-05 | 0.000764 ± 0.00016 |  |  |  |
